Experiments:
Assay in all cases: SPR, Biacore T200, 25 C; FVII(a) variant captured on anti-Gla Ab 4F6, mAb0842(OA) injected
[1] = target: T1, FVII(a) variant E394A (human, UniProt P08709 61-466)
T1 construct: hFVII alanine variant in cell culture supernatant
T1 sequence: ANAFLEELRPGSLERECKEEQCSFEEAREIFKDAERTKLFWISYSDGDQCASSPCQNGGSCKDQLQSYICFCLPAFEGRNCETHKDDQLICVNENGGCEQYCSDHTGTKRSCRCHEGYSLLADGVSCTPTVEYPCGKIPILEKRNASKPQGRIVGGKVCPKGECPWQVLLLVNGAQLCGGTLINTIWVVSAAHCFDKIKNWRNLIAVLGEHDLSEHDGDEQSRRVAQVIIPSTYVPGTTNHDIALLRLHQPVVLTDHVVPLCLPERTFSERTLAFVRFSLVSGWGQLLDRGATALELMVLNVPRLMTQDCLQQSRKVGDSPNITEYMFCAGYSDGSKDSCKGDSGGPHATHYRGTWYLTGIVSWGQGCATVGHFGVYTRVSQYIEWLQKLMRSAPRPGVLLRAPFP
Procedure: (§1) The running buffer was prepared by diluting 10-fold the 10×HBS-P buffer (supplied by GE Healthcare) and supplemented with 1 mg/ml BSA and 5 mM CaCl2 to give 10 mM HEPES, 150 mM NaCl, 0.05% v/v Polysorbate 20, pH 7.4, 5 mM CaCl2, 1 mg/ml bovine serum albumin (BSA). […] Regeneration of the chip was achieved using 10 mM HEPES, 150 mM NaCl, 20 mM EDTA, 0.05 v/v Polysorbate 20, pH 7.4. Binding data were analysed according to a 1:1 Kinetic model and steady state analysis using BiaEvaluation 4.1 supplied by the manufacturer (Biacore AB, Uppsala, Sweden). Wherever possible, ka, kd and KD values from 1:1 kinetic fitting model are reported. […] An amino acid residue is considered a hot-spot residue if substitution of that amino acid residue with alanine results in an affinity reduction of ten (10) fold or more relative to the wild type.

[2] = target: T2, FVII(a) variant L120A (human, UniProt P08709 61-466)
T2 construct: hFVII alanine variant in cell culture supernatant
T2 sequence: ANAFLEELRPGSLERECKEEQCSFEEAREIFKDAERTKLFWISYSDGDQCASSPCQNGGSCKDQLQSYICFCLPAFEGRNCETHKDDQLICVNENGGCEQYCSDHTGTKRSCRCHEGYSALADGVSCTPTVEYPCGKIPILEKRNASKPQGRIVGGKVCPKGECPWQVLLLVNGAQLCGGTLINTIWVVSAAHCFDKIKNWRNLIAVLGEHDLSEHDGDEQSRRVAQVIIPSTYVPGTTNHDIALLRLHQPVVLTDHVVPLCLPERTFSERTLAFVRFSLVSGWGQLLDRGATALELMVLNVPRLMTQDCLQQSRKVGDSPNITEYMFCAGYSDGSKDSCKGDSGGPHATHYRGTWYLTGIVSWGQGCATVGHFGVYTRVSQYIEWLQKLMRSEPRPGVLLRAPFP
Procedure: as §1

[3] = target: T3, FVII(a) variant R113A (human, UniProt P08709 61-466)
T3 construct: hFVII alanine variant in cell culture supernatant
T3 sequence: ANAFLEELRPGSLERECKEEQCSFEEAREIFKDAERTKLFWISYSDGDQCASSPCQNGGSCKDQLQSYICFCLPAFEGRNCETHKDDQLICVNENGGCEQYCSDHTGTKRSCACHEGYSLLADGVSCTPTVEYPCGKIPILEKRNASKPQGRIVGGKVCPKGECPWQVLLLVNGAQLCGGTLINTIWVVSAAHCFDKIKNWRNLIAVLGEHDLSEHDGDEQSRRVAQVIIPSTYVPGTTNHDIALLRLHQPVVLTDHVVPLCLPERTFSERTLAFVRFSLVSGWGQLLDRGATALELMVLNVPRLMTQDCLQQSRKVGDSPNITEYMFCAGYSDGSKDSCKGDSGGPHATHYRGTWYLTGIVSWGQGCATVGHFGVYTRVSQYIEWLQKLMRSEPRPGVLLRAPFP
Procedure: as §1

[4] = target: T4, FVII(a) variant V252A (human, UniProt P08709 61-466)
T4 construct: hFVII alanine variant in cell culture supernatant
T4 sequence: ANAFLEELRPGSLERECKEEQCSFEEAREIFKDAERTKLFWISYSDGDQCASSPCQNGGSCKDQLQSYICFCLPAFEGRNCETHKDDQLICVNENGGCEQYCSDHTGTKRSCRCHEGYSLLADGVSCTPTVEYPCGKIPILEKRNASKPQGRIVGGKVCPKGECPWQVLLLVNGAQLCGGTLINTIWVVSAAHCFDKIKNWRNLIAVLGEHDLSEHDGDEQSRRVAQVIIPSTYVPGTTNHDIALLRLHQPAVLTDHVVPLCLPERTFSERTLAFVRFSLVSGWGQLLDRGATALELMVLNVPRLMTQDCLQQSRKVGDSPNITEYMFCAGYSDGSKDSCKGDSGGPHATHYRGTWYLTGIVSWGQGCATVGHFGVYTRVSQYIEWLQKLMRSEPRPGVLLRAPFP
Procedure: as §1

[5] = target: T5, FVII(a) variant I186A (human, UniProt P08709 61-466)
T5 construct: hFVII alanine variant in cell culture supernatant
T5 sequence: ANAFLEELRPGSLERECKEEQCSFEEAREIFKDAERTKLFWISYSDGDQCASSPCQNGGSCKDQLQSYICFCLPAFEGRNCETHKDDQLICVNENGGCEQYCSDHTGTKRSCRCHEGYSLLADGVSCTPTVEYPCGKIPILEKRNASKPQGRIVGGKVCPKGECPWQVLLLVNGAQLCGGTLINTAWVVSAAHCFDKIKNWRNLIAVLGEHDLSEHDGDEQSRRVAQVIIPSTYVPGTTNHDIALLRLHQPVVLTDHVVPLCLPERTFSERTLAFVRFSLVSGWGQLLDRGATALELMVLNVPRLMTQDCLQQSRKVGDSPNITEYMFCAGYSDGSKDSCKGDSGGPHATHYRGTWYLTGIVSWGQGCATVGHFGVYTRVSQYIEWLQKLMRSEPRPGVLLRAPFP
Procedure: as §1

B1: mAb0842(OA) (antibody, human IgG4 S228P, kappa)
heavy: QVQLQESGPGLVKPSQTLSLTCTVSGYSISSDSAWSWIRQPPGKGLEWIGYIQYSGSTNYNPSLKSRVTISRDTSKNQFSLKLSSVTAADTAVYYCARSVNYYGNSFAVGYWGQGTLVTVSSASTKGPSVFPLAPCSRSTSESTAALGCLVKDYFPEPVTVSWNSGALTSGVHTFPAVLQSSGLYSLSSVVTVPSSSLGTKTYTCNVDHKPSNTKVDKRVESKYGPPCPPCPAPEFLGGPSVFLFPPKPKDTLMISRTPEVTCVVVDVSQEDPEVQFNWYVDGVEVHNAKTKPREEQFNSTYRVVSVLTVLHQDWLNGKEYKCKVSNKGLPSSIEKTISKAKGQPREPQVYTLPPSQEEMTKNQVSLSCAVKGFYPSDIAVEWESNGQPENNYKTTPPVLDSDGSFFLVSRLTVDKSRWQEGNVFSCSVMHEALHNHYTQKSLSLSLGK
light: EIVLTQSPATLSLSPGERATLSCRASQGISDYLHWYQQKPGEAPRLLIKYTSQPATGIPARFSGSGSGTDFTLTISSLEPEDFAVYYCQNGHSFPLTFGQGTKLEIKRTVAAPSVFIFPPSDEQLKSGTASVVCLLNNFYPREAKVQWKVDNALQSGNSQESVTEQDSKDSTYSLSSTLTLSKADYEKHKVYACEVTHQGLSSPVTKSFNRGEC
chain: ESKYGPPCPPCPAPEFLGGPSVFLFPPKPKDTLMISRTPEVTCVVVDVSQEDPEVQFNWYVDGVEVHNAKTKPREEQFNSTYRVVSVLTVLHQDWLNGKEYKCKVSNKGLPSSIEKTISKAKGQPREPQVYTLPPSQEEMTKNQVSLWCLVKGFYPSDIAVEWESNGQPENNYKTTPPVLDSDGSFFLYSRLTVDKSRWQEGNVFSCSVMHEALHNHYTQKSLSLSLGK
notes: also called monovalent humanized 11F2 antibody; one-armed anti-FVII(a) antibody
Question: What does the source list for B1?
Answer: Kd [1]: 0.79 nM; Kd [2]: 0.6 nM; Kd [3]: 0.29 nM; Kd [4]: 0.28 nM; Kd [5]: 0.39 nM
